US20150258192A1, “COMPOSITIONS AND METHODS FOR PREVENTING OR TREATING CHRONIC LUNG ALLOGRAFT DYSFUNCTION (CLAD) AND IDIOPATHIC PULMONARY FIBROSIS (IPF)” (priority 2014, published 2015)
No end group written: not given here.

Legend:
Assay in all cases: Kinase Profiling Assay
Format in all cases: biochemical
Conditions in all cases: peptide 100 μM
CHK1(h) = biological target: T1, CHK1(h) (Homo sapiens, UniProt O14757)
T1 sequence (O14757 1-476): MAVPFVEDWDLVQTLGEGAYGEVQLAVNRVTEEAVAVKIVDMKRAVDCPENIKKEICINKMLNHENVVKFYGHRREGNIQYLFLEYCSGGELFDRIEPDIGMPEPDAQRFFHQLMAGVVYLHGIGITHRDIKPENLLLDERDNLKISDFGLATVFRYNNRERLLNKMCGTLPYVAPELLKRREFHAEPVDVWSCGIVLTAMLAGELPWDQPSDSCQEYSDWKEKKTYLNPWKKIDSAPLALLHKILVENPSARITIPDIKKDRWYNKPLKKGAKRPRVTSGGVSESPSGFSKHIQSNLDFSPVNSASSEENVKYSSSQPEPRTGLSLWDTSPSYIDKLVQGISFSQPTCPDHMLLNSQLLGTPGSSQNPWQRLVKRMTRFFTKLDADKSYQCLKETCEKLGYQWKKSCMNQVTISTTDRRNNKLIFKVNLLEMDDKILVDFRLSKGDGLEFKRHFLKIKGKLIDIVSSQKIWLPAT
How it was run: (§1)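 Radiometric filter-binding format: cationic substrate takes up labeled phosphate from ATP unless the inhibitor peptide blocks the kinase. Substrate bound to an anionic filter, scintillation-counted, normalized to 100% activity control. Duplicates; part of a 266-kinase selectivity panel for MK2 peptides.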

Tie2(h) = biological target: T2, Tie2(h) (Homo sapiens, UniProt Q02763)
T2 construct: purchased Millipore
How it was run: as §1

MAPKAP-K2(h) = biological target: T3, MAPKAP-K2(h) (Homo sapiens, UniProt P49137)
T3 construct: purchased Millipore
How it was run: as §1

LOK(h) = biological target: T4, LOK(h) (Homo sapiens, UniProt O94804)
T4 construct: purchased Millipore
How it was run: as §1

Fer(h) = Fer(h) (Homo sapiens, UniProt P16591)
How it was run: as §1

CaMKIδ(h) = CaMKIδ(h) (Homo sapiens, UniProt Q8IU85)
How it was run: as §1

FGFR2(h) = FGFR2(h) (Homo sapiens, UniProt P21802)
How it was run: as §1

CK1δ(h) = CK1δ(h) (Homo sapiens, UniProt P48730)
How it was run: as §1

MSSK1(h) = biological target: T5, MSSK1(h) (Homo sapiens, UniProt Q9UPE1)
T5 construct: purchased Millipore
How it was run: as §1

Flt4(h) = Flt4(h) (Homo sapiens, UniProt P35916)
How it was run: as §1

EphB4(h) = biological target: T6, EphB4(h) (Homo sapiens, UniProt P54760)
T6 sequence (P54760 16-987): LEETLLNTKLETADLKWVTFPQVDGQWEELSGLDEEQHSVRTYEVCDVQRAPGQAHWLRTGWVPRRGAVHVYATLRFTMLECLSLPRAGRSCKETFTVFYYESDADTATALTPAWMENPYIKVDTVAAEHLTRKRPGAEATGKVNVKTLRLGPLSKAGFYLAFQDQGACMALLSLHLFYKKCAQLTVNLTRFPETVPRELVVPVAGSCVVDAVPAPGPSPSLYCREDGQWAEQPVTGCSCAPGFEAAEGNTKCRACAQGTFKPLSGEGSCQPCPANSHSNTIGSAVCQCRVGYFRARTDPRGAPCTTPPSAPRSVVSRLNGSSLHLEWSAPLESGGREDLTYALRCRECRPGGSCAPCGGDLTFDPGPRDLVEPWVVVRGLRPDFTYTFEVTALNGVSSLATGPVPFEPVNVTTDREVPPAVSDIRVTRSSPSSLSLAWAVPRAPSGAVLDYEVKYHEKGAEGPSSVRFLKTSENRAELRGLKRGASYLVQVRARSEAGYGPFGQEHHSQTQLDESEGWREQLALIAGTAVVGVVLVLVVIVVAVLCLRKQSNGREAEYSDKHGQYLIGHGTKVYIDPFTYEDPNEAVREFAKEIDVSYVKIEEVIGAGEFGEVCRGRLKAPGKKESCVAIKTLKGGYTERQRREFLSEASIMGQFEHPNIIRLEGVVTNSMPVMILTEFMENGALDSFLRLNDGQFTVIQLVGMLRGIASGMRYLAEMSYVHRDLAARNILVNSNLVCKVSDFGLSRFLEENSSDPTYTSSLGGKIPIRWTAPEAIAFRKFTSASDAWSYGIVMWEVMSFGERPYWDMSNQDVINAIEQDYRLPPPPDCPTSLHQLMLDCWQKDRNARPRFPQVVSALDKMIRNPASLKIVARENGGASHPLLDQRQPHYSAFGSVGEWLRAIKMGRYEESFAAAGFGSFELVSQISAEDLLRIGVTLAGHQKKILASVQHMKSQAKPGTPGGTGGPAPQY
How it was run: as §1

Snk(h) = biological target: T7, Snk(h) (Homo sapiens, UniProt Q9NYY3)
T7 construct: purchased Millipore
How it was run: as §1

T3 sequence (P49137 whole entry): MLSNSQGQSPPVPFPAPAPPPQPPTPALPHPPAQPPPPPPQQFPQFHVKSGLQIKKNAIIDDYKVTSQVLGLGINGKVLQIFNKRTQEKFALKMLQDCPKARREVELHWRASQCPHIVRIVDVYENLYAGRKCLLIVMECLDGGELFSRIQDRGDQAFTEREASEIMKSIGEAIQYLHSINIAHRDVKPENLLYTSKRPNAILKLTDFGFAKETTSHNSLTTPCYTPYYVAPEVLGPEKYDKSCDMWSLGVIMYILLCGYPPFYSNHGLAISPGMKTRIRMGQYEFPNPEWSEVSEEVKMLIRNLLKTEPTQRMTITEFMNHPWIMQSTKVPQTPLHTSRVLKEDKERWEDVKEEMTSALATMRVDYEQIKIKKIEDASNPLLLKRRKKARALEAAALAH
T4 sequence (O94804 whole entry): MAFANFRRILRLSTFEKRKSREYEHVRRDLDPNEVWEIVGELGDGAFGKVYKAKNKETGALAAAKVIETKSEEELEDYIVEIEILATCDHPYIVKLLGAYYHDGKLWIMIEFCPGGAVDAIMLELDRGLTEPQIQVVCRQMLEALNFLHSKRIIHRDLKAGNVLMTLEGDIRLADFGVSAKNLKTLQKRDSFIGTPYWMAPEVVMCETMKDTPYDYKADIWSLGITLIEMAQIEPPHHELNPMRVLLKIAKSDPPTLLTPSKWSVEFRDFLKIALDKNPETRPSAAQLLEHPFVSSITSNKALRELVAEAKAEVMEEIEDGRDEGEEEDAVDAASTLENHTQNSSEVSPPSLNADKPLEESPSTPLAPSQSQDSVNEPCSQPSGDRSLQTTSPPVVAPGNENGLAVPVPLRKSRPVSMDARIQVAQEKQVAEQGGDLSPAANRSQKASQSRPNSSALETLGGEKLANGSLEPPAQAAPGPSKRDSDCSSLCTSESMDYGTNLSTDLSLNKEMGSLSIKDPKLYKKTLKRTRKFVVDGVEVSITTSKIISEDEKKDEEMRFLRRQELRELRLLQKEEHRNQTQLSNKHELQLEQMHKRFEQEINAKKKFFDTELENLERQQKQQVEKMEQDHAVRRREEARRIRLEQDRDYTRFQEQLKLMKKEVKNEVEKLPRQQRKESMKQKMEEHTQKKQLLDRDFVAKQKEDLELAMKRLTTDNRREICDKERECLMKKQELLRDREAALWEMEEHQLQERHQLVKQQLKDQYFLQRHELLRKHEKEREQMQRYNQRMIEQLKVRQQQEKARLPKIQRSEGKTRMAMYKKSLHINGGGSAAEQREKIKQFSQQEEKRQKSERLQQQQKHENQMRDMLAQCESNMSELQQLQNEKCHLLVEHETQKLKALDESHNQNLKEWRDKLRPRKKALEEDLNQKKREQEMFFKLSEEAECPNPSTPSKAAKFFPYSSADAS
T7 sequence (Q9NYY3 whole entry): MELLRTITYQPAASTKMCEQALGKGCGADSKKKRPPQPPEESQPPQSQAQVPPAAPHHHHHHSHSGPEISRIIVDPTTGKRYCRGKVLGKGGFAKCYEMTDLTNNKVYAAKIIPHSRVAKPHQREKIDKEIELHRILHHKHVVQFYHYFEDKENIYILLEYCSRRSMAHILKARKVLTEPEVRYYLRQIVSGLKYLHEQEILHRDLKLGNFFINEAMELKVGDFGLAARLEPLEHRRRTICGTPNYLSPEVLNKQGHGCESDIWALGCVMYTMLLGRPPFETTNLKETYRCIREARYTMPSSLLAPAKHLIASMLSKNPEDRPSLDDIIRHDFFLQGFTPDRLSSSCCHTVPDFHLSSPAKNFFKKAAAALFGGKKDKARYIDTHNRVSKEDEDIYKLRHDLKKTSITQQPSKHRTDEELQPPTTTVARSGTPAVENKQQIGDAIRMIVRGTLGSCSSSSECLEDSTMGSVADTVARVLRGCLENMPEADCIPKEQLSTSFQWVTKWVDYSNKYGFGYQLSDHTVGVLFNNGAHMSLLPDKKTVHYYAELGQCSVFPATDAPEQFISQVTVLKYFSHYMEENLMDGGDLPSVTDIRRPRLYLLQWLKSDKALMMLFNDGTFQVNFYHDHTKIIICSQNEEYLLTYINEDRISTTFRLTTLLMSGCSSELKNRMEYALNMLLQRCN
Chain of Fer(h) (P16591 whole entry): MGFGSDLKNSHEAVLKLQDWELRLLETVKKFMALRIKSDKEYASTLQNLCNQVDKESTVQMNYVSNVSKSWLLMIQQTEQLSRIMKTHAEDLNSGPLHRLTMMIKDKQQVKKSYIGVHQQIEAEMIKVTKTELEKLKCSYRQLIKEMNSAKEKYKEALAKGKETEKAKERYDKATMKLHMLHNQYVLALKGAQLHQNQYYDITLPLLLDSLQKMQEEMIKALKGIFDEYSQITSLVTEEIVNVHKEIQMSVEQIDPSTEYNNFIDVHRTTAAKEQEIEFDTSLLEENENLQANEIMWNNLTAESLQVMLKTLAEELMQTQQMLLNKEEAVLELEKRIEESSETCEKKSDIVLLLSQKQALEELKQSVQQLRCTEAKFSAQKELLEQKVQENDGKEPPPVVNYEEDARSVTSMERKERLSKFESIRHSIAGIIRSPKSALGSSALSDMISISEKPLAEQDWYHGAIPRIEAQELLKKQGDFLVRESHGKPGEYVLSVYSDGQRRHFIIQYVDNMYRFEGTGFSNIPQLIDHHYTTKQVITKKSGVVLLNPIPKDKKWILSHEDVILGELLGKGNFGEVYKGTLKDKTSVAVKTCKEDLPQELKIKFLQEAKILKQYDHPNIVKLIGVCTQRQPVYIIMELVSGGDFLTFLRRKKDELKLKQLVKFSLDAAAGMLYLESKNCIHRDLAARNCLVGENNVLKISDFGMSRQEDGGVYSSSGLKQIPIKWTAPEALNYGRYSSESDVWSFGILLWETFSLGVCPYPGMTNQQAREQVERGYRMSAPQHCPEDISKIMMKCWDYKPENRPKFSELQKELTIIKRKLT
T5 sequence (Q9UPE1 whole entry): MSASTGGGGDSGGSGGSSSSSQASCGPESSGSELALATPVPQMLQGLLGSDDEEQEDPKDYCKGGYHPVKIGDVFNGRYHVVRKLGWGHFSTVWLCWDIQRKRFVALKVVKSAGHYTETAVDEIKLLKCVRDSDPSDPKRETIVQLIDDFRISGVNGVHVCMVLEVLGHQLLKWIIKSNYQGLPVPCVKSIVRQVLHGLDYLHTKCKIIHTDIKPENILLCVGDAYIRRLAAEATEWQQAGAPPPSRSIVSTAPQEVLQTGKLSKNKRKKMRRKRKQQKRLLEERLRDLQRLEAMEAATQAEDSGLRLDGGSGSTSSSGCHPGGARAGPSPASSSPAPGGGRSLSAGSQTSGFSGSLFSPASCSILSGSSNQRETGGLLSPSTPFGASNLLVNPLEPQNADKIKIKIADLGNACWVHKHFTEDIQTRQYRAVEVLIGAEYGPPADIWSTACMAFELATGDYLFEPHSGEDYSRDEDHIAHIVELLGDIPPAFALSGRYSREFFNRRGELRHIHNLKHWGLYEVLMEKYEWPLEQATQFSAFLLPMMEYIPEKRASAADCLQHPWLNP
Chain of CK1δ(h) (P48730 whole entry): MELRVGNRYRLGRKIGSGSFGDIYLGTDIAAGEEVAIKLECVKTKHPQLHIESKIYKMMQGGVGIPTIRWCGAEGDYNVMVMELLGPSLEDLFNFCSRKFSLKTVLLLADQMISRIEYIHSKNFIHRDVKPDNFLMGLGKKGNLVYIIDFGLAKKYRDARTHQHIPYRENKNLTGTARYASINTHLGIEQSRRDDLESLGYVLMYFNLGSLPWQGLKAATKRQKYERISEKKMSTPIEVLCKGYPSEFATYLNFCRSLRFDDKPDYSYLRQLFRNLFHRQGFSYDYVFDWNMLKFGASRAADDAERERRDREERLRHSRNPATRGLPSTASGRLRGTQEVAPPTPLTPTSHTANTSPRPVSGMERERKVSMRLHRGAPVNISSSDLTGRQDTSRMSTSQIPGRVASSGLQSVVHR
Chain of CaMKIδ(h) (Q8IU85 whole entry): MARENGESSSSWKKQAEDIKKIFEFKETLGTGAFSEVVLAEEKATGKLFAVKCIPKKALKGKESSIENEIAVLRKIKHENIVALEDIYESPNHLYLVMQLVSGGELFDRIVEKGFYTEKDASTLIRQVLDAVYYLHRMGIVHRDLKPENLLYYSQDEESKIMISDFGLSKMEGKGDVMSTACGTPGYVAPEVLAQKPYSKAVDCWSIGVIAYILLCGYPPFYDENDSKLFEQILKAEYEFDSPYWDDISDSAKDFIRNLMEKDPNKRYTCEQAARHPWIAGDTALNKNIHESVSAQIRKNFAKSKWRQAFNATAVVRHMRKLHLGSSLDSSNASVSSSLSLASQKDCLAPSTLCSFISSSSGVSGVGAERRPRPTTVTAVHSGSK

| Sequence | % activity (CHK1(h)) | % activity (Tie2(h)) | % activity (MAPKAP-K2(h)) | % activity (LOK(h)) | % activity (Fer(h)) | % activity (CaMKIδ(h)) | % activity (FGFR2(h)) | % activity (CK1δ(h)) | % activity (MSSK1(h)) | % activity (Flt4(h)) | % activity (EphB4(h)) | % activity (Snk(h)) |
| --- | --- | --- | --- | --- | --- | --- | --- | --- | --- | --- | --- | --- |
| FAKLAARLYRKALARQLGVAA [MMI-0300] | 91% | 26% | 5% | 37% | 130% | 10% | 14% | 92% | 77% | 83% | 44% | – |
| HRRIKAWLKKIKALARQLGVAA (Mammal) [MMI-0500] | 65% | 22% | 9% | 7% | 196% | 0% | 12% | 78% | 22% | 73% | 38% | 122% |
| KAFAKLAARLYRKALARQLGVAA [MMI-0400] | 87% | 21% | 5% | 18% | 108% | 17% | 18% | 93% | 75% | 89% | 28% | 131% |
| YARAAARQARAKALARQLGVAA [MMI-0100] | – | 28% | 19% | 37% | – | – | – | – | 82% | 135% | 62% | 94% |
| YARAAARQARAKALNRQLGVA (Mammal) [MMI-0200] | – | 53% | 35% | 67% | 101% | 47% | 73% | 92% | 100% | – | 131% | – |
